Measurements taken from the supplement of paper PMC6757056.
± gives the standard deviation of the averaged measurements.

B1: library; a variant is named by its letters at N, in order (parent)
chain: GCUGUCACCGGAAUACCAGCAUCGUCUUGAUGCCCUUGGAAGUCCGGUCUGAUGAGUCCNNNNNGGACGAAACAGC

Assays:
theophylline [1] = variants of: B1; assay: FACS-Seq fitted mean relative fluorescence mCherry/BFP without ligand (log10 relative fluorescence); higher = higher reporter protein expression; details: HEK293T, ligand present: no
Method in brief: (§1)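 Genomic DNA from 6 mCherry/BFP sort bins was PCR-amplified, barcoded and sequenced on MiSeq. The sorted cells were enriched HEK293T libraries, lentivirally transduced with a ribozyme-switch mCherry reporter and an EF1α-BFP marker, incubated with or without ligand for 48 h. Fluorescence derives from a normal fit to the bin counts. The fit was on log10(mCherry/BFP), and means were scaled to five spiked-in control ribozymes.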

theophylline [2] = variants of: B1; assay: normalized RNA/DNA level with ligand (relative to sTRSVctl = 100) (log10 (% of sTRSVctl)); higher = less ribozyme self-cleavage, higher mRNA level; details: ligand concentration (+) RNA-Seq: 5 mM, HEK293T, reporter: mCherry (pCS4076), ligand present: yes
Method in brief: (§2)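 Ribozyme switch library plasmids with mCherry reporters (eGFP in certain ligand experiments) went into HEK293T cells at 4 µg per 6-well well. Where ligand was used, it was applied 1 h before transfection, and total RNA was extracted with EDTA 72 h later for reverse transcription, amplification, barcoding and sequencing. RNA level is the RNA-to-DNA read ratio normalized to a spiked-in non-cleaving sequence or to the leading sequences, then scaled and log-transformed. Scaling was ×100 with log10, the leading set comprised 25 sequences, and the cutoff was ≥100 DNA reads.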

theophylline [3] = variants of: B1; assay: normalized RNA/DNA level without ligand (relative to sTRSVctl = 100) (log10 (% of sTRSVctl)); higher = less ribozyme self-cleavage, higher mRNA level; details: HEK293T, reporter: mCherry (pCS4076), ligand present: no
Method in brief: as §2

theophylline [4] = variants of: B1; assay: FACS-Seq fitted mean relative fluorescence mCherry/BFP with ligand (log10 relative fluorescence); ligand concentration (+) FACS-Seq: 1 mM; higher = higher reporter protein expression; details: HEK293T, ligand present: yes
Method in brief: as §1

Variant	FACS-Seq fitted mean (log10) (theophylline [1])	normalized RNA/DNA level with ligand (log10) (theophylline [2])	normalized RNA/DNA level without ligand (log10) (theophylline [3])	FACS-Seq fitted mean (log10) (theophylline [4])
AAUCC	0.844 ± 0.012	2.04 ± 0.052	1.95 ± 0.07	0.808 ± 0.05
CGCUU	0.746 ± 0.19	1.99 ± 0.087	1.62 ± 0.075	0.896 ± 0.11
CUAUA	0.141 ± 0.018	1.972 ± 0.0076	1.61 ± 0.08	0.384 ± 0.024
CAGGC	0.86 ± 0.039	2.06 ± 0.046	1.95 ± 0.03	0.813 ± 0.041
GCAUU	0.42 ± 0.1	1.938 ± 0.0078	1.792 ± 0.0054	0.4217 ± 0.00082
AUUAU	0.905 ± 0.075	2.01 ± 0.021	1.88 ± 0.097	0.861 ± 0.095
CCAGC	0.9205 ± 0.0079	1.96 ± 0.056	1.994 ± 0.008	0.864 ± 0.14
UUAGC	0.886 ± 0.052	1.97 ± 0.029	1.94 ± 0.042	0.916 ± 0.035
UUGUG	0.172 ± 0.13	1.96 ± 0.09	1.868 ± 0.014	0.266 ± 0.051
UUGUC	0.132 ± 0.031	1.99 ± 0.027	2.01 ± 0.063	0.305 ± 0.035
CGGCA	0.507 ± 0.017	1.96 ± 0.046	1.485 ± 0.0076	0.7564 ± 0.0075
CCCAU	0.699 ± 0.08	1.97 ± 0.028	1.901 ± 0.019	0.822 ± 0.04
CUCGA	0.868 ± 0.018	2.04 ± 0.076	1.95 ± 0.12	0.883 ± 0.1
GAGUU	0.55 ± 0.013	1.89 ± 0.025	1.6731 ± 0.00032	0.742 ± 0.063
ACGAG	0.428 ± 0.049	2.05 ± 0.026	1.85 ± 0.073	0.448 ± 0.017
CCGGA	0.978 ± 0.089	2.08 ± 0.027	1.9 ± 0.044	1.05 ± 0.15
UACUC	0.1 ± 0.14	2.1 ± 0.021	2.02 ± 0.039	0.351 ± 0.022
UACUA	0.959 ± 0.069	1.97 ± 0.11	1.67 ± 0.042	1.05 ± 0.071
UACUG	0.382 ± 0.044	1.9807 ± 0.00035	1.94 ± 0.04	0.421 ± 0.12
CCACC	0.788 ± 0.091	1.99 ± 0.087	1.97 ± 0.061	0.739 ± 0.01
CCACU	0.682 ± 0.012	2.01 ± 0.059	1.76 ± 0.16	0.818 ± 0.014
CAAGC	0.66 ± 0.031	1.96 ± 0.064	1.99 ± 0.079	0.543 ± 0.046
CAAGA	0.32 ± 0.031	1.97 ± 0.023	1.56 ± 0.15	0.3733 ± 0.0017
ACCAG	0.9579 ± 0.0021	1.93 ± 0.028	1.83 ± 0.059	1.02 ± 0.047

Variant	FACS-Seq fitted mean (log10) (theophylline [1])	normalized RNA/DNA level with ligand (log10) (theophylline [2])	normalized RNA/DNA level without ligand (log10) (theophylline [3])	FACS-Seq fitted mean (log10) (theophylline [4])
ACCAC	1.02 ± 0.038	2 ± 0.055	2.006 ± 0.014	0.984 ± 0.066
ACUCC	0.767 ± 0.21	2 ± 0.068	1.96 ± 0.026	0.658 ± 0.024
UAGGA	0.042 ± 0.047	1.958 ± 0.0077	1.55 ± 0.063	0.302 ± 0.044
CUAAC	1.02 ± 0.018	1.94 ± 0.028	1.85 ± 0.019	0.893 ± 0.18
AUCUU	0.605 ± 0.046	2.03 ± 0.055	1.93 ± 0.086	0.585 ± 0.0056
CGAAU	0.071 ± 0.019	1.929 ± 0.0065	1.43 ± 0.076	0.306 ± 0.0069
CGAAC	0.992 ± 0.11	1.96 ± 0.076	1.72 ± 0.026	1.02 ± 0.089
CAUAC	0.865 ± 0.024	1.917 ± 0.0021	1.8 ± 0.092	0.996 ± 0.019
CAUAU	0.397 ± 0.059	2.02 ± 0.043	1.76 ± 0.21	0.362 ± 0.069
CAGAA	0.0186 ± 0.078	1.95 ± 0.054	1.2 ± 0.22	0.681 ± 0.037
UACGA	0.287 ± 0.021	2.07 ± 0.025	1.72 ± 0.097	0.324 ± 0.024
UACGC	0.81 ± 0.14	2.01 ± 0.038	1.98 ± 0.17	0.916 ± 0.039
GCAAU	1.11 ± 0.06	1.96 ± 0.017	1.78 ± 0.027	1.06 ± 0.046
AUGAG	0.655 ± 0.014	1.914 ± 0.0079	1.812 ± 0.0077	0.868 ± 0.029
UAGCA	0.6175 ± 0.0054	1.95 ± 0.052	1.55 ± 0.091	0.757 ± 0.046
AACAU	0.214 ± 0.0061	1.93 ± 0.1	1.75 ± 0.067	0.439 ± 0.045
AGCUC	0.692 ± 0.15	2.04 ± 0.2	1.9 ± 0.046	0.565 ± 0.047
CUGAA	0.3855 ± 0.0027	2.006 ± 0.0026	1.317 ± 0.0043	0.763 ± 0.15
AAAGU	0.9033 ± 0.0058	1.923 ± 0.018	1.58 ± 0.018	1.1 ± 0.046
UGAUA	0.3741 ± 0.0021	1.955 ± 0.0019	1.42 ± 0.17	0.789 ± 0.084
UGAUG	0.912 ± 0.0092	2.005 ± 0.00081	1.91 ± 0.14	0.848 ± 0.11
AGUGA	0.239 ± 0.055	2 ± 0.0061	1.38 ± 0.17	0.535 ± 0.0085
CGAUA	0.099 ± 0.017	1.946 ± 0.014	1.21 ± 0.36	0.491 ± 0.0076
CGAUC	0.533 ± 0.1	1.927 ± 0.016	1.84 ± 0.089	0.495 ± 0.065

Variant	FACS-Seq fitted mean (log10) (theophylline [1])	normalized RNA/DNA level with ligand (log10) (theophylline [2])	normalized RNA/DNA level without ligand (log10) (theophylline [3])	FACS-Seq fitted mean (log10) (theophylline [4])
CGAUU	0.31 ± 0.2	1.98 ± 0.13	1.51 ± 0.15	0.579 ± 0.022
CCGAA	-0.229 ± 0.1	1.93 ± 0.06	1.4 ± 0.089	0.178 ± 0.11
ACCUA	1.18 ± 0.18	1.94 ± 0.021	1.88 ± 0.16	1.136 ± 0.0083
CUUAC	0.44 ± 0.11	2.04 ± 0.065	1.95 ± 0.15	0.194 ± 0.17
CUUAU	0.864 ± 0.067	2.04 ± 0.071	1.907 ± 0.014	0.901 ± 0.013
CCCCU	0.771 ± 0.094	2 ± 0.042	1.951 ± 0.01	0.807 ± 0.053
AGCGA	0.281 ± 0.033	1.99 ± 0.025	1.68 ± 0.058	0.503 ± 0.017
CCGCU	0.291 ± 0.035	2.09 ± 0.012	1.81 ± 0.024	0.381 ± 0.0062
CCGCA	0.678 ± 0.047	2.08 ± 0.025	1.83 ± 0.043	0.764 ± 0.0084
CCGCC	1.17 ± 0.096	2.0217 ± 0.0019	1.96 ± 0.033	1.18 ± 0.036
UUAAA	0.111 ± 0.099	1.895 ± 0.0096	1.26 ± 0.013	0.545 ± 0.078
CUGGA	1.07 ± 0.09	2.02 ± 0.043	1.84 ± 0.095	1.09 ± 0.045
GAAUG	0.627 ± 0.023	1.9 ± 0.028	1.6 ± 0.093	0.713 ± 0.037
AACGG	0.852 ± 0.14	2 ± 0.049	1.8 ± 0.057	0.998 ± 0.083
UUGCG	1.18 ± 0.2	1.95 ± 0.094	1.82 ± 0.08	1.12 ± 0.074
UUAUG	0.732 ± 0.015	2.06 ± 0.071	1.907 ± 0.0097	0.821 ± 0.031
UUAUC	1.09 ± 0.15	2.04 ± 0.049	1.96 ± 0.16	1.19 ± 0.12
CGUAU	0.177 ± 0.0091	2 ± 0.05	1.54 ± 0.11	0.491 ± 0.0065
CGUAC	0.651 ± 0.027	1.92 ± 0.093	1.75 ± 0.062	0.792 ± 0.044
GAAAA	0.381 ± 0.0065	1.96 ± 0.033	1.3 ± 0.14	0.809 ± 0.014
GUAGA	0.949 ± 0.15	1.8 ± 0.057	1.66 ± 0.14	0.935 ± 0.15
GAGGG	0.948 ± 0.031	1.91 ± 0.22	1.67 ± 0.03	1.07 ± 0.07
GAACG	1.01 ± 0.081	1.89 ± 0.14	1.793 ± 0.015	1.03 ± 0.028
